For this test, the target named is T1, SBP-tagged full-length human Lnp (human, UniProt Q9C0E8 1-428).
T1 construct: lunapark (Lnp), human, full length; a tobacco etch virus protease cut site stands between Lnp and the SBP tag; Membrane protein with two TM segments, kept in 0.05% Triton X-100 in the pull-down; also called lunapark; SBP-tagged human Lnp; source: S. cerevisiae (pRS425, GAL1 promoter), purified in Triton X-100 (streptavidin resin, biotin elution, SEC on Superose 6); not shown: SBP, C-terminal, kept
T1 sequence (looked up): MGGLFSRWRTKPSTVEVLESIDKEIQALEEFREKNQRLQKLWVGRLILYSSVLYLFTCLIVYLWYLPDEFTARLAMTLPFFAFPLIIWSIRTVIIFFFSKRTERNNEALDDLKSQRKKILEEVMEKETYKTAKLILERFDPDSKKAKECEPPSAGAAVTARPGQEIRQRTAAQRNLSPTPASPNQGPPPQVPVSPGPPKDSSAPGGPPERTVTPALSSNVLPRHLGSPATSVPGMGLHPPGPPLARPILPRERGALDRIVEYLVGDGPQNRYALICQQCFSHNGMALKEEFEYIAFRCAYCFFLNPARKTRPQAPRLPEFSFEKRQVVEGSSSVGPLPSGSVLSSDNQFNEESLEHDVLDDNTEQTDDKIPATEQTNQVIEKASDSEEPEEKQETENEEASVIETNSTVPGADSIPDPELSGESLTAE
Kind of test: pull-down; SBP-tagged human Lnp mixed with His10-tagged Lnp (molar ratio 1:3 or 1:5), 1 h at 4°C in 20 mM Hepes pH 7.5, 100 mM KCl, 1 mM dithiothreitol, 0.05% Triton X-100; held on streptavidin resin, washed, eluted with 2 mM biotin; SDS-PAGE and Coomassie blue staining. The settings on record: both partners purified.

B1: His10-tagged full-length human Lnp (natural protein, UniProt Q9C0E8 1-428, looked up)
chain: MGGLFSRWRTKPSTVEVLESIDKEIQALEEFREKNQRLQKLWVGRLILYSSVLYLFTCLIVYLWYLPDEFTARLAMTLPFFAFPLIIWSIRTVIIFFFSKRTERNNEALDDLKSQRKKILEEVMEKETYKTAKLILERFDPDSKKAKECEPPSAGAAVTARPGQEIRQRTAAQRNLSPTPASPNQGPPPQVPVSPGPPKDSSAPGGPPERTVTPALSSNVLPRHLGSPATSVPGMGLHPPGPPLARPILPRERGALDRIVEYLVGDGPQNRYALICQQCFSHNGMALKEEFEYIAFRCAYCFFLNPARKTRPQAPRLPEFSFEKRQVVEGSSSVGPLPSGSVLSSDNQFNEESLEHDVLDDNTEQTDDKIPATEQTNQVIEKASDSEEPEEKQETENEEASVIETNSTVPGADSIPDPELSGESLTAE
notes: lunapark (Lnp), human, full length, cloned into pET21b; also called lunapark; source: E. coli BL21-CodonPlus (DE3)-RIPL, purified in Triton X-100 (Ni-NTA, SEC on Superose 6); not shown: His10, C-terminal, kept
In the case of B1, the binding result is listed as “binds”.

These data come from paper PMC6238531, “The ER morphology-regulating lunapark protein induces the formation of stacked bilayer discs” (Life Science Alliance, 2018).
